Measurements from patent publication US20130040894A1, “INHIBITION OR ACTIVATION OF SERINE/THREONINE ULK3 KINASE ACTIVITY” (TALLINN UNIVERSITY OF TECHNOLOGY, priority 2009, published 2013).

How the values were obtained:
GLI2 = test: In vitro kinase assay, phosphorylation of GLI2; format: biochemical; details: FLAG-tagged GLI2 immunoprecipitated from HEK293 cells
Protocol: (§1) HEK293 cells were transfected with 13.5 μg of FLAG-tagged constructs expressed GLI1, GLI2, GLI3, ULK3, ULK3(K44R), ULK3(K139R) or FLAG-CMV-4 empty vector on 10 cm plates. The cells were lysed with 0.5 ml of Lysis Buffer (50 mM Tris HCl, pH 7.4, 150 mM NaCl, 1 mM EDTA, 1% Triton X-100) containing protease inhibitor cocktail (PIC) (Roche Applied Science). The lysates were centrifuged for 15 min at 4° C. and 15000 g, and the supernatants were used for immunoprecipitation (IP). IP was performed using anti-FLAG-M2 affinity gel (Sigma-Aldrich) in batch format according to the manufacture's instructions. Immune complexes were washed three times with 500 μl of Kinase Buffer (KB) (50 mM HEPES, pH 7.4, 20 mM MgCl2, 25 μM ATP) and resuspended in 12.5 μl of KB. One fifth of the immuno-complexes was subjected to WB and the rest was used for the kinase assay.
Kinase reactions were carried out in KB in a total volume of 20 μl of in the presence of 1 μCi of [γ-^32P]ATP per reaction. We used 1 μl of the immunoprecipitated ULK3, ULK3(K44R) or ULK3(K139R) mixed with 5 μl of the GLI-M2 immunocomplexes or 5 μl of bacterially expressed and purified His-GLI1 fragments. Kinase reactions were held at 30° C. for 30 min and terminated by adding of 5 μl of 4× Laemmli Sample Buffer. Proteins were resolved by SDS-PAGE. […]

FLAG-tagged GLI2, P10070 = biological target: T1, FLAG-tagged GLI2, P10070
T1 chain: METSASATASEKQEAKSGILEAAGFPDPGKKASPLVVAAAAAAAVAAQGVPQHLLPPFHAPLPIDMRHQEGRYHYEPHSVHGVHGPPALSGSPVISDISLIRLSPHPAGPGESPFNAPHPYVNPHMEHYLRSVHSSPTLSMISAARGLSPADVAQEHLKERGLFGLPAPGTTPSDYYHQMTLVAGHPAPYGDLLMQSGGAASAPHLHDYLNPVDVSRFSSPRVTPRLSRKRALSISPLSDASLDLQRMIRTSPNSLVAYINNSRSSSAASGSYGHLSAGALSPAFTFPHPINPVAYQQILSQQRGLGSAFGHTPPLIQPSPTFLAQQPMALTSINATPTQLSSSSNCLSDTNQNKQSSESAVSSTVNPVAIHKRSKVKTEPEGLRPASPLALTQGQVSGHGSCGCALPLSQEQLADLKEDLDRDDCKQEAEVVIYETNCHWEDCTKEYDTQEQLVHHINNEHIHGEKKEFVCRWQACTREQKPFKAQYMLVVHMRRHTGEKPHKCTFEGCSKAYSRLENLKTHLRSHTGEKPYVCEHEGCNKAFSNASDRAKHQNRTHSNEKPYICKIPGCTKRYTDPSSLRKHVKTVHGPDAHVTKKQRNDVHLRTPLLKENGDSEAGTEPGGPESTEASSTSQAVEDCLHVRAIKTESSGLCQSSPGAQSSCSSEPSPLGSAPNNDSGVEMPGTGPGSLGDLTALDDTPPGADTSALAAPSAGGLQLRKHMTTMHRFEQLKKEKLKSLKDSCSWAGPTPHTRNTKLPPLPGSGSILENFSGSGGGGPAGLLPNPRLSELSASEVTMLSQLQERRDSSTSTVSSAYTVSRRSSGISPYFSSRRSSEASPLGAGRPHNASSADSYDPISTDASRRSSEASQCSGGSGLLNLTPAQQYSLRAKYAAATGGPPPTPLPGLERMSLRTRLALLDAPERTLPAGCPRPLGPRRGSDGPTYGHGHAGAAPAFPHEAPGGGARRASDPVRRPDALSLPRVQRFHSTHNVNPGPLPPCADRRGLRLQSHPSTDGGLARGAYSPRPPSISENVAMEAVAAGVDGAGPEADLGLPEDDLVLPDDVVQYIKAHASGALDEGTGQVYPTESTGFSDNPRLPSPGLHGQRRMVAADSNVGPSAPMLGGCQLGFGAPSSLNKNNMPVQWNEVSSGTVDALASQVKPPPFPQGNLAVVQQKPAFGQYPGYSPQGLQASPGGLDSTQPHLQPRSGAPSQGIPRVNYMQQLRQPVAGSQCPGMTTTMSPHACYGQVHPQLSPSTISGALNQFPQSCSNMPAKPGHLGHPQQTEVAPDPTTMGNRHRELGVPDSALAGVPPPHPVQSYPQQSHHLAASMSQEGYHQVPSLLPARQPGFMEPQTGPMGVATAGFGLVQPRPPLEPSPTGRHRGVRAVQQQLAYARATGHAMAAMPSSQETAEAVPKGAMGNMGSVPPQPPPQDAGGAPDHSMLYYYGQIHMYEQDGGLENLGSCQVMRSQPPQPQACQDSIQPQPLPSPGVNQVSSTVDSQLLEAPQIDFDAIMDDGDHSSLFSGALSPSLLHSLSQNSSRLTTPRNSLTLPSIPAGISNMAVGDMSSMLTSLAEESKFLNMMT

[1] = system: GLI-dependent firefly luciferase activity in Shh-LIGHT2 cells; test: GLI-dependent luciferase assay in Shh-L2 cells; format: cell-based, mouse
Protocol: Cells were transfected by the expression constructs or respective empty vectors using Polyethylenimine transfection agent (PEI) (Inbio) and as described in [28]. We used 0.25 μg of cDNA per 1 cm^2 of plate surface area for transfections. After 3 h of transfection HEK293, NIH3T3 and Cos1 cells were propagated in the normal growth medium for 48 h. Prior the further analysis the cells were washed twice with PBS. Post-transfectional Shh-L2 cells were grown in the normal growth medium for 24 h and for additional 24 h in the Light medium containing 0.25% FBS, washed once with PBS, lysed in Passive Lysis Buffer (Promega, Madison Wis., USA) (70 ul per well of 24-well plate format) and subjected to luciferase assay.
Luciferase assay was performed as previously described. Briefly, firefly luciferase activity of 12 μl of the Shh-L2 cells lysate was measured using Luciferase Assay Kit (Promega) and galactosidase activity was quantified using Galacto-LightPlus kit (Tropix, Bedford Mass., USA) according to the manufacturer's instructions. Chemiluminicence was measured using Ascent FL Fluoroscan (Thermo Electron Corporation, Waltham Mass., USA) according to the manufacturer's instructions.
We cotransfected the constructs together with GLI-expressing plasmids (or respective empty vector) into Shh-L2 cells and assessed their effect on GLI-dependent firefly luciferase activity. The obtained data was normalized with β-galactosidase values. […] It was able to stimulate the luciferase activity 3.8 times and enhanced the transcriptional activity of over expressed GLI1 and GLI2 approximately 2 and 3.2 times, respectively. The potency of STK36 in the assay was much lower.
In order to examine if the kinase activity of ULK3 is required for the luciferase reporter activation we tested the supposed kinase-deficient variants of ULK3, ULK3(K44R) and ULK3(K139R) in the same assay. […] We also tested the effect of ULK3 and the mutants on the luciferase reporter when the SHH pathway was activated by cotransfection with pShhN (plasmid expressing biologically active part of SHH).

ULK3 = test: In vitro kinase assay, autophosphorylation; format: biochemical, human; details: FLAG-tagged protein immunopurified from HEK293 cells, γ-P32-ATP
Protocol: as §1
Kinase reactions were carried out in KB in a total volume of 20 μl of in the presence of 1 μCi of [γ-^32P]ATP per reaction. We used 1 μl of the immunoprecipitated ULK3, ULK3(K44R) or ULK3(K139R) mixed with 5 μl of the GLI-M2 immunocomplexes or 5 μl of bacterially expressed and purified His-GLI1 fragments. Kinase reactions were held at 30° C. for 30 min and terminated by adding of 5 μl of 4× Laemmli Sample Buffer. Proteins were resolved by SDS-PAGE. The gel was dried at 80° C. for 2 h, and autoradiography was performed using Bio-Rad Personal Molecular Imager FX.
To test if ULK3 has an autophosphorylation activity, we expressed FLAG-tagged wild-type ULK3 and mutants ULK3(K44R) and ULK3(K139R) in HEK293 cells, immunopurified and subjected to in vitro kinase assay in the presence of γ-P^32-ATP.

phosphorylation of GLI2 (GLI2): slightly phosphorylate
B1: FLAG-tagged ULK3(K44R) (protein)
chain: MAGPGWGPPRLDGFILTERLGSGTYATVYKAYAKKDTREVVAIRCVAKKSLNKASVENLLTEIEILKGIRHPHIVQLKDFQWDSDNIYLIMEFCAGGDLSRFIHTRRILPEKVARVFMQQLASALQFLHERNISHLDLKPQNILLSSLEKPHLKLADFGFAQHMSPWDEKHVLRGSPLYMAPEMVCQRQYDARVDLWSMGVILYEALFGQPPFASRSFSELEEKIRSNRVIELPLRPLLSRDCRDLLQRLLERDPSRRISFQDFFAHPWVDLEHMPSGESLGRATALVVQAVKKDQEGDSAAALSLYCKALDFFVPALHYEVDAQRKEAIKAKVGQYVSRAEELKAIVSSSNQALLRQGTSARDLLREMARDKPRLLAALEVASAAMAKEEAAGGEQDALDLYQHSLGELLLLLAAEPPGRRRELLHTEVQNLMARAEYLKEQVKMRESRWEADTLDKEGLSESVRSSCTLQ
in vitro kinase assay, phosphorylation signal (32P autoradiography) (FLAG-tagged GLI2, P10070): The mutant ULK3(K44R) could slightly phosphorylate GLI2 (data not shown) | enhancement of transcriptional activity of overexpressed GLI1 ([1]; cotransfected with GLI1, Shh-L2 cells): neither of the mutants had an effect | enhancement of transcriptional activity of overexpressed GLI2 ([1]; cotransfected with GLI2, Shh-L2 cells): some residual activity | induction of luciferase activity with activated SHH pathway ([1]; cotransfection with pShhN, Shh-L2 cells): 1.7 times | autophosphorylation activity (ULK3): reduced efficiency in autophosphorylation
